Measured values: article PMC11813153, “Extended receptor repertoire of an adenovirus associated with human obesity” (PLOS Pathogens, 2025)

B1: HAdV-D37 fiber knob (FK) (domain or fragment)
chain: GYLVAWNPKYDTRTLWTTPDTSPNCTIAQDKDSKLTLVLTKCGSQILANVSLIVVAGKYHIINNKTNPKIKSFTIKLLFNKNGVLLDNSNLGKAYWNFRSGNSNVSTAYEKAIGFMPNLVAYPKPSNSKKYARDIVYGTIYLGGKPDQPAVIKTTFNQETGCEYSITFNFSWSKTYENVEFETTSFTFSYIAQE
notes: fiber protein of human adenovirus type 37 (HAdV-D37), knob domain; checked against GenBank ABK59080.1 (HAdV-D37 fiber); also called HAdV-D37 FK; HAdV-D37 wt FK; source: construct, expression and purification as described previously [100]

Key:
[1] = target: HAdV-D36 fiber knob domain (FK) (Human adenovirus type 36 (HAdV-D36), strain 275); experiment: crystal structure; fiber knobs crystallised alone or co-crystallised with 10 mM carbohydrate; HAdV-D36 FK: hanging drop, PEG 3,350, NH4Ac, 0.1 M Bis-Tris pH 5.5, 4 C
[2] = target: the molecule itself; experiment: as above

Molecule	stoichiometry N [1]	stoichiometry N [2]
HAdV-D36 fiber knob domain (FK) (domain or fragment)	3	–
B1	–	3
